This assay has as its target T1, GST-tagged ARK5 wild type (AMPK-related protein kinase 5) (human, UniProt O60285 1-661).
T1 construct: ARK5 (aka NUAK1), UniProt ID O60285; Printed both as GST-ARK5 and ARK5-GST, so the end of the tag is not clear; also called NUAK1; GST-ARK5; source: U2OS, transfected, in lysate; U2OS, transfected, purified (Pierce GST spin purification kit)
T1 sequence (looked up): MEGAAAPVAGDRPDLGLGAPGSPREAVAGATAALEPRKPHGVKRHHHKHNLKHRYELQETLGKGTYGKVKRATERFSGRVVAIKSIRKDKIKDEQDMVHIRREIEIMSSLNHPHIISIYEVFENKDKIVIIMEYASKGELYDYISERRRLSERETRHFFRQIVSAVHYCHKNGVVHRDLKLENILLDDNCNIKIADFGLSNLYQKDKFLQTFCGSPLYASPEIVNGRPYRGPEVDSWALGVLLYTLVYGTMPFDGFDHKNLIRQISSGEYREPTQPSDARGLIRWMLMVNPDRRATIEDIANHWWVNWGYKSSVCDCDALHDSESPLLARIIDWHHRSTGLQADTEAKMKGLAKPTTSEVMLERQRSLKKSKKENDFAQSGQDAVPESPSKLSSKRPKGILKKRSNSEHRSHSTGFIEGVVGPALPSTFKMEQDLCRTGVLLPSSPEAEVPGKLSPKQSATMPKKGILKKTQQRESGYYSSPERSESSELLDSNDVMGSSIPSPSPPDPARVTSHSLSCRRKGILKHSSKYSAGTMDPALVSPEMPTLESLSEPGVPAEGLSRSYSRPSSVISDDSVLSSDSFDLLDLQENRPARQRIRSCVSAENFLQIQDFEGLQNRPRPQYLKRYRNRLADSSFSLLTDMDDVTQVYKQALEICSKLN
The assay can be described thus: co-IP; in vivo co-IP: U2OS cells cotransfected with GST-ARK5 (WT or KD) and FLAG-hnRNP A1 (WT, fragments or mutants); lysate in co-IP buffer (25 mM Tris-HCl pH 7.4, 150 mM NaCl, 0.5% Triton X-100), GSH Sepharose beads overnight at 4 °C, immunoblotting. Conditions: partners not purified. For orientation: In western blotting, separated proteins are transferred to a membrane and probed.

This is an account of results in publication PMC9478406, “AMPK-related protein kinase ARK5 regulates subcellular localization of RNA-binding protein hnRNP A1 during hypertonic stress” (The Journal of Biological Chemistry, 2022).

B1: FLAG-tagged hnRNP A1 wild type (heterogeneous nuclear ribonucleoprotein A1) (natural protein, human, UniProt P09651-2 1-320, looked up)
chain: MSKSESPKEPEQLRKLFIGGLSFETTDESLRSHFEQWGTLTDCVVMRDPNTKRSRGFGFVTYATVEEVDAAMNARPHKVDGRVVEPKRAVSREDSQRPGAHLTVKKIFVGGIKEDTEEHHLRDYFEQYGKIEVIEIMTDRGSGKKRGFAFVTFDDHDSVDKIVIQKYHTVNGHNCEVRKALSKQEMASASSSQRGRSGSGNFGGGRGGGFGGNDNFGRGGNFSGRGGFGGSRGGGGYGGSGDGYNGFGNDGSNFGGGGSYNDFGNYNNQSSNFGPMKGGNFGGRSSGPYGGGGQYFAKPRNQGGYGGSSSSSSYGSGRRF
notes: hnRNP A1, full length, printed length 320 aa (residues 1-320); The printed residue numbers (1-320) fit the 320-residue isoform; also called FLAG-hnRNP A1 WT; A1-WT; source: U2OS, transfected, in lysate; U2OS, transfected, purified separately
For the molecule B1, the binding result is listed as “binds”.
